Results from PMC7041945, “Misfolded proteins bind and activate death receptor 5 to trigger apoptosis during unresolved endoplasmic reticulum stress” (eLife, 2020).

What was measured:
Format in all cases: cell-based, Homo sapiens
[1] = tested on: PARP / caspase 8 / caspase 3 in HCT116 cells; assay: Western blot of HCT116 lysates (PARP, caspase 8 and caspase 3 cleavage, DR5 level)
Description: Media and cells for each sample were collected by cell scraping into cold PBS followed by a subsequent wash with 1 ml of cold PBS. The cell pellet was then resuspended in cold lysis buffer (30 mM HEPES pH 7.2, 150 mM NaCl, 1% Triton X100, 1x Roche protease inhibitor) and lysed via needle shearing on ice. Samples were centrifuged at 1000xg for 5 min, and the supernatants were mixed with sample buffer to a final concentration of 1% SDS, 62.5 mM Tris-HCl pH 6.8, 10% glycerol, 0.1% bromophenol blue, 50 mM DTT. Samples were boiled at 95°C and loaded on SDS-PAGE gels (GenScript). Samples were subsequently transferred onto nitrocellulose membranes, blocked with Odyssey buffer (Licor) for 1 hr at RT, and probed with primary antibodies diluted 1:1000 (unless otherwise specified) in Licor Odyssey buffer supplemented with 0.1% Tween 20% at 4°C overnight.
Bound primary antibodies were probed by HRP-conjugated secondary antibodies (Amersham, Piscataway, NJ, 1:10000) using enhanced chemiluminescence (SuperSignal; Thermo Scientific, Waltham, MA) detected by standard film or through the ChemiDoc XRS+ Imaging System (Bio-Rad).

[2] = tested on: DR5 / ERGIC53 / giantin in HCT116 cells; assay: Immunofluorescence co-localization (Pearson's correlation per cell)
Description: HCT116 were seeded at 25000 cells per well in an 8-well glass-bottom μSlide (Ibidi 80827) pre-coated with Collagen IV (Sigma-Aldrich C6745, 0.03 mg/ml in PBS incubated for 30 min at RT, and then rinsed off with PBS x 3) in growth media 18 hr prior to transfection (see above for protocol). 24 hr post-transfection, the cells were fixed using 4% paraformaldehyde (PFA, Electron Microscopy Sciences) or methanol, depending on the antibody combination used for immunostaining (see table below). Samples were protected from light after fixation to preserve GFP fluorescence.
For fixation with 4% PFA, 32% PFA was added directly to the well in growth media for a 1:8 dilution and incubated for 10–15 min at RT. Cells were then permeabilized with PHEM buffer (60 mM PIPES, 25 mM HEPES, 10 mM EGTA, 2 mM MgCl2-hexahydrate, pH 6.9) containing 0.1% Triton-X100 for 10 min at RT for three washes.
For fixation with methanol, media was removed and cells were washed with cold PBS. Then methanol (pre-cooled at −20°C) was added to the well and incubated at −20°C for 3–4 min. The methanol was promptly aspirated and replaced with PHEM buffer (without Triton X-100), followed by two more 10 min washes with PHEM at RT.
To block against non-specific antibody interactions, cells were rinsed in PHEM (without 0.1% Triton X-100) and then incubated with PHEM containing 2% normal goat serum (Jackson Immunoresearch Laboratories, 005-000-121) for 1 hr at RT. Primary antibodies were incubated in blocking solution overnight at 4°C at the dilution noted in the table above. […]
From the 405 nm channel, cell nuclei were identified as primary objects using maximum correlation thresholding (MCT) and shape to distinguish clumped objects. […] For overlap between DR5 and MPZ/RHO-GFP, Pearson’s correlation coefficients were calculated within the MPZ/RHO mask for each cell to filter out untransfected cells. For overlap between DR5/MPZ and organelle markers, Pearson’s correlation coefficients were calculated within tertiary objects for the organelle marker in GFP+ cells. […]

[3] = tested on: XBP1 mRNA in HCT116 cells; assay: RT-PCR for Xbp1 mRNA splicing; conditions: HCT116, 24 hr
Description: Cells were grown in 6-well plates and harvested with 0.5 ml of TRIzol reagent (Life Technologies) per manufacturer's protocol to extract RNA. […] The reverse transcription product was diluted to 200 μl with 10 mM Tris-HCl pH 8.2 and used at 1:100 dilution for subsequent RT-PCR reactions. 2 μl of cDNA was added to 0.2 μM of forward and reverse primers ([…]; Hs_XBP1_Rev: [NT]), 0.2 mM of each dNTP, 0.5 units of Taq DNA polymerase (Thermo Scientific). The reaction was set at an annealing temperature of 60.5°C with an extension time of 30 s for 26 cycles.

[4] = MPZ-positive cells, N > 55, 24 hr, mean

B1: MPZ-GFP: myelin protein zero with a C-terminal monomeric EGFP, expressed from plasmid (protein)
chain: IVVYTDREVHGAVGSRVTLHCSFWSSEWVSDDISFTWRYQPEGGRDAISIFHYAKGQPYIDEVGTFKERIQWVGDPRWKDGSIVIHNLDYSDNGTFTCDVKNPPDIVGKTSQVTLYVFEKVPTRYGVVLGAVIGGVLGVVLLLLLLFYVVRYCWLRRQAALQRRLSAMEKGKLHKPGKDASKRGRQTPVLYAMLDHSRSTKAVSEKKAKGLGESRKDKK
modifications: left off: monomeric EGFP, C-terminal, kept
notes: myelin protein zero with a C-terminal monomeric EGFP, expressed from plasmid
- DR5 int (bg subtracted) ([1]; DR5 input levels, Rep 2): 739.08
- normalized DR5 to GAPDH ([1]; DR5 input levels, Rep 2): 0.2156
- DR5 int (bg subtracted) ([1]; DR5 input levels, Rep 3): 357.944
- normalized DR5 to GAPDH ([1]; DR5 input levels, Rep 3): 0.2423
- DR5 levels normalized to GAPDH, average ([1]; DR5 input levels, average of rep 2 and rep 3, Stdev in row below): 0.229
- caspase 8 and caspase 3 cleavage, high expression ([1]; HCT116, 24 hr): cleavage of caspase 8and its downstream target caspase 3
- caspase 8 and 3 cleavage/activity, low expression level ([1]; low levels of MPZ-GFP expression, proper plasma membrane localization): did not induce caspase 8 or 3 activity
- Pearson's correlation per cell between DR5 and ERGIC53 [2, 4]: 0.61 ± 0.03
- Pearson's correlation per cell between DR5 and giantin [2, 4]: 0.14 ± 0.02
- overlap (mean Pearson's correlation) with DR5 signal ([2]; versus 90° rotated images, 24 hr): statistically significant overlap with DR5 signal
- XBP1 mRNA splicing [3]: initiated a few hours post-transfection with MPZ-GFP and later attenuated
